Article PMC7057950 (Nature Communications, 2020)

B1: human Hsp90β K607A (natural protein)
chain: not shown
notes: Hsp90β, human; pET28 vector, site-directed mutagenesis; source: E. coli BL21 (DE3) cod+, purified (HisTrap, Resource Q, Superdex 200)
B2: human Hsp90β K607R (natural protein)
chain: not shown
notes: as for B1
B3: human Hsp90β K607E (natural protein)
chain: not shown
notes: as for B1
B4: human Hsp90β K607I (natural protein)
chain: not shown
notes: as for B1

Target: the molecule itself
Experiment: SEC; Hsp90 dimerization assay: dilution series on Superdex 200 increase 10/300 GL (Shimadzu HPLC), fluorescence detection, 25 °C, 40 mM Hepes pH 7.5, 150 mM KCl, 5 mM MgCl2, 2 mM DTT; human Hsp90β 2 nM to 4 µM, yeast Hsp90 16 nM to 2 µM; KD = KD(app) divided by the dilution factor (about 4); dimer to monomers

Protein	binding result
B1	binds
B2	binds
B3	binds
B4	binds
